Source: patent US20180141972

Tests used:
[1] = target: ePDZ-b-WELQ-OFP fusion substrate
[2] = target: T1, Spycatcher-WELQ-Tem1 fusion protein (Spycatcher followed by a SplB protease site with a P1' methionine and the lactamase Tem1), P62593
T1 chain: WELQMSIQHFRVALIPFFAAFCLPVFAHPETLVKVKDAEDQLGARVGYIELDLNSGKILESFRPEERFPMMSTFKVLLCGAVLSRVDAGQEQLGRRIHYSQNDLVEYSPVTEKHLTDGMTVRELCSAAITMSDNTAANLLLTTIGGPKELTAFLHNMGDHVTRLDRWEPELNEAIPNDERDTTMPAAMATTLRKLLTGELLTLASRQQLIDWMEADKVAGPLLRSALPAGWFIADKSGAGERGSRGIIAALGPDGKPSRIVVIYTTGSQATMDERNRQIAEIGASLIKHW

[3] = target: Spycatcher-WELQ-LSSmOrange fusion protein
[4] = target: HIS-ePDZ-b-WELQ-OFP fusion substrate protein
[5] = target: ePDZ-b-ENLYFQ-OFP fusion protein
[6] = target: HIS-ePDZ-b-ENLYFQ-OFP fusion substrate protein

B1: SplB protease with shortened ARVC-pep tag (the least shortened of the 3 progressively shortened peptide tags) (protein)
chain: ENNVTKVKDTNIFPYTGVVAFKSATGFVVGKNTILTNKHVSKNYKVGDRITAHPNSDKGNGGIYSIKKIINYPGKEDVSVIQVEERAIERGPKGFNFNDNVTPFKYAAGAKAGERIKVIGYPHPYKNKYVLYESTGPVMSVEGSSIVYSAHTESGNSGSPVLNSNNELVGIHFASDVKNDDNRNAYGVYFTPEIKKFIAENIDK
- cleavage efficiency at high protease concentration (gel, FIG. 5, lanes 2-5) [1]: At high protease concentration, no variation was observed in cleavage efficiency
- cleavage to yield native OFP (gel, FIG. 5) [1]: These tagged proteases all showed improved cleavage to yield native OFP (red arrow) compared to SplB protease tagged with a non-specific C-terminal peptide (SplB-CON) and commercial nontagged SplB protease (SplB-COM)

B2: Commercial SplB protease, non-tagged (protein)
chain: B1 chain
- cleavage of the fusion protein to native Tem1 (gel, FIG. 3) [2]: Commercial SplB protease, lacking the fused spytag, was only able to produce minimal native Tem1
- cleavage of the fusion protein to native LSSmOrange (gel, FIG. 4) [3]: A similar experiment with LSSmOrange replacing Tem1 yielded the same result
- cleavage of the fusion substrate to native OFP (gel, FIG. 5) [1]: Neither SplB-COM or Spl-CON was able to completely digest the fusion substrate

B3: SplB protease with full-length ARVCF peptide tag at C-terminus (protein)
chain: ENNVTKVKDTNIFPYTGVVAFKSATGFVVGKNTILTNKHVSKNYKVGDRITAHPNSDKGNGGIYSIKKIINYPGKEDVSVIQVEERAIERGPKGFNFNDNVTPFKYAAGAKAGERIKVIGYPHPYKNKYVLYESTGPVMSVEGSSIVYSAHTESGNSGSPVLNSNNELVGIHFASDVKNDDNRNAYGVYFTPEIKKFIAENIDKPQPVDSWV
- cleavage efficiency at high protease concentration (gel, FIG. 5, lanes 2-5) [1]: At high protease concentration, no variation was observed in cleavage efficiency
- cleavage of the fusion substrate to native OFP (gel, FIG. 5) [1]: this was notably more efficient for SplB-AP compared to SplB-COM and SplB fused to a control peptide that does not interact with ePDZ-b (SplB-CON)
- cleavage to yield native OFP (gel, FIG. 5) [1]: These tagged proteases all showed improved cleavage to yield native OFP (red arrow) compared to SplB protease tagged with a non-specific C-terminal peptide (SplB-CON) and commercial nontagged SplB protease (SplB-COM)

B4: HIS-SplB-ARVC-pep (protein)
chain: B3 chain
- on-column cleavage to native OFP (gel, FIG. 7) [4]: Addition of 30 mM imidazole alleviated this constraint, resulting in improved cleavage efficiencies using histidine tagged ePDZ-b -WELQ-OFP and SplB-AP proteins

B5: TEV protease fused to the optimised 4-amino acid truncated ARVCF peptide (protein)
chain: GESLFKGPRDYNPISSTICHLTNESDGHTTSLYGIGFGPFIITNKHLFRRNNGTLLVQSLHGVFKVKNTTTLQQHLIDGRDMIIIRMPKDFPPFPQKLKFREPQREERICLVTTNFQTKSMSSMVSDTSCTFPSSDGIFWKHWIQTKDGQCGSPLVSTRDGFIVGIHSASNFTNTNNYFTSVPKNFMELLTNQEAQQWVSGWRLNADSVLWGGHKVFMSKPEEPFQPVKEATQLMNELVYSQDSWV
- cleavage of the fusion substrate to native OFP (gel, FIG. 6A) [5]: The results show clearly improved cleavage when TEV is fused to the optimised 4-amino acid truncated ARVCF peptide (TEV-AP4)
- generation of native OFP over time (gel, FIG. 6A) [5]: Native OFP (arrowed red) was rapidly generated through use of TEV-AP4 compared to endogenous TEV
- incubation time to near complete cleavage (gel, FIG. 6A) [5]: near completion around 2.5 hours
- incubation time to notable cleavage (gel, FIG. 6A) [5]: Notable cleavage was observed after only 30 minutes incubation

B6: HIS-TEV-AP4 (protein)
chain: B5 chain
- yield of native OFP after on-column cleavage (gel, FIG. 8, lanes 6 and 15) [6]: the yield of native OFP was significantly increased when histidine tagged TEV-AP4 was used compared to histidine tagged TEV

B7: SplB protease with ARVCF peptide truncated by 4 amino acids (DSWV) (protein)
chain: ENNVTKVKDTNIFPYTGVVAFKSATGFVVGKNTILTNKHVSKNYKVGDRITAHPNSDKGNGGIYSIKKIINYPGKEDVSVIQVEERAIERGPKGFNFNDNVTPFKYAAGAKAGERIKVIGYPHPYKNKYVLYESTGPVMSVEGSSIVYSAHTESGNSGSPVLNSNNELVGIHFASDVKNDDNRNAYGVYFTPEIKKFIAENIDKDSWV
- cleavage activity at sub-stoichiometric protease (gel, FIG. 5, lanes 16, 18-19) [1]: At sub-stoichiometric amounts, 3 and 4 amino acid truncations of the ARVCF peptide showed clear improvements in activity compared to full-length peptide
- cleavage efficiency at high protease concentration (gel, FIG. 5, lanes 2-5) [1]: At high protease concentration, no variation was observed in cleavage efficiency
- cleavage to yield native OFP (gel, FIG. 5) [1]: These tagged proteases all showed improved cleavage to yield native OFP (red arrow) compared to SplB protease tagged with a non-specific C-terminal peptide (SplB-CON) and commercial nontagged SplB protease (SplB-COM)

B8: wild-type TEV protease, untagged (protein)
chain: GESLFKGPRDYNPISSTICHLTNESDGHTTSLYGIGFGPFIITNKHLFRRNNGTLLVQSLHGVFKVKNTTTLQQHLIDGRDMIIIRMPKDFPPFPQKLKFREPQREERICLVTTNFQTKSMSSMVSDTSCTFPSSDGIFWKHWIQTKDGQCGSPLVSTRDGFIVGIHSASNFTNTNNYFTSVPKNFMELLTNQEAQQWVSGWRLNADSVLWGGHKVFMSKPEEPFQPVKEATQLMNELVYSQ
- cleavage of the fusion substrate to native OFP (gel, FIG. 6A) [5]: wild-type TEV protease did not show significant cleavage even after 24 hours incubation
- generation of native OFP over time (gel, FIG. 6A) [5]: Native OFP (arrowed red) was rapidly generated through use of TEV-AP4 compared to endogenous TEV

B9: HIS-TEV (protein)
chain: B8 chain
- yield of native OFP after on-column cleavage (gel, FIG. 8, lanes 6 and 15) [6]: the yield of native OFP was significantly increased when histidine tagged TEV-AP4 was used compared to histidine tagged TEV
